Assay results taken from publication doi:10.1101/2021.01.21.427566, “Gradual opening of Smc arms in prokaryotic condensin” (bioRxiv, 2021).

Key:
[1] = target: the molecule itself; assay: EPR-DEER; MTSL-labelled single-cysteine Smc, 5 µM, mixed with ScpA and ScpB (similar trends without ScpAB); apo, or with 1 mM ATP and 10 µM dsDNA40; 50 mM Tris-HCl pH 7.5, 50 mM NaCl, 2 mM MgCl2, 40 % ethylene glycol-d6, 90 % deuterium oxide; shock-frozen, DEER traces at 50 K, Q band; spin-spin distances between the two Smc of a dimer
[2] = target: the molecule itself; assay: cross-linking; purified single-cysteine Smc, 30 µM dimers with 600 µM M3M in 50 mM Tris-HCl pH 7.5, 200 mM NaCl, 4 °C overnight; non-reducing SDS-PAGE, Coomassie; reversed by up to 10 mM DTT

B1: Smc^3S(R643C, E1118Q) (natural protein, B. subtilis, UniProt P51834 1-1186, looked up)
chain: MFLKRLDVIGFKSFAERISVDFVKGVTAVVGPNGSGKSNITDAIRWVLGEQSARSLRGGKMEDIIFAGSDSRKRLNLAEVTLTLDNDDHFLPIDFHEVSVTRRVYRSGESEFLINNQPSRLKDIIDLFMDSGLGKEAFSIISQGKVEEILSSKAEDRRSIFEEAAGVLKYKTRKKKAENKLFETQDNLNRVEDILHELEGQVEPLKIQASIAKDYLEKKKELEHVEIALTAYDIEELHGKWSTLKEKVQMAKEEELAESSAISAKEAKIEDTRDKIQALDESVDELQQVLLVTSEELEKLEGRKEVLKERKKNAVQNQEQLEEAIVQFQQKETVLKEELSKQEAVFETLQAEVKQLRAQVKEKQQALSLHNENVEEKIEQLKSDYFELLNSQASIRNELQLLDDQMSQSAVTLQRLADNNEKHLQERHDISARKAASETEFARIEQEIHSQVGAYRDMQTKYEQKKRQYEKNESALYQAYQYVQQARSKKDMLETMQGDFSGFYQGVKEVLKAKERLGGIRGAVLELISTEQKYETAIEIALGASAQHVVTDDEQSARKAIQYLKQNSFGRATFLPLSVIRDRQLQSRDAETAARHSSFLGVASELVTFDPAYRSVIQNLLGTVLITEDLKGANELAKLLGHCYRIVTLEGDVVNPGGSMTGGAVKKKNNSLLGRSRELEDVTKRLAEMEEKTALLEQEVKTLKHSIQDMEKKLADLRETGEGLRLKQQDVKGQLYELQVAEKNINTHLELYDQEKSALSESDEERKVRKRKLEEELSAVSEKMKQLEEDIDRLTKQKQTQSSTKESLSNELTELKIAAAKKEQASKGEEDNLARLKKELTETELALKEAKEDLSFLTSEMSSSTSGEEKLEEAAKHKLNDKTKTIELIALRRDQRIKLQHGLDTYERELKEMKRLYKQKTTLLKDEEVKLGRMEVELDNLLQYLREEYSLSFEGAKEKYQLETDPEEARKRVKLIKLAIEELGTVNLGSIDEFERVNERYKFLSEQKEDLTEAKNTLFQVIEEMDEEMTKRFNDTFVQIRSHFDQVFRSLFGGGRAELRLTDPNDLLHSGVEIIAQPPGKKLQNLNLLSGGERALTAIALLFSILKVRPVPFCVLDQVEAALDEANVFRFAQYLKKYSSDTQFIVITHRKGTMEEADVLYGVTMQESGVSKVISVKLEETKEFVQ
modifications: MTSL spin label on the engineered cysteine 643
notes: Smc, Bacillus subtilis (Bsu), cysteine-lite Smc^3S background with R643C and Walker B E1118Q; also called Smc^3S(EQ) single cysteine mutant; source: E. coli BL21-Gold (DE3), purified (HiTrap Blue, Heparin, gel filtration)
[1]
  binding result: binds

B2: Smc^3SV(A715C) (natural protein, B. subtilis, UniProt P51834 1-1186, looked up)
chain: MFLKRLDVIGFKSFAERISVDFVKGVTAVVGPNGSGKSNITDAIRWVLGEQSARSLRGGKMEDIIFAGSDSRKRLNLAEVTLTLDNDDHFLPIDFHEVSVTRRVYRSGESEFLINNQPSRLKDIIDLFMDSGLGKEAFSIISQGKVEEILSSKAEDRRSIFEEAAGVLKYKTRKKKAENKLFETQDNLNRVEDILHELEGQVEPLKIQASIAKDYLEKKKELEHVEIALTAYDIEELHGKWSTLKEKVQMAKEEELAESSAISAKEAKIEDTRDKIQALDESVDELQQVLLVTSEELEKLEGRKEVLKERKKNAVQNQEQLEEAIVQFQQKETVLKEELSKQEAVFETLQAEVKQLRAQVKEKQQALSLHNENVEEKIEQLKSDYFELLNSQASIRNELQLLDDQMSQSAVTLQRLADNNEKHLQERHDISARKAASETEFARIEQEIHSQVGAYRDMQTKYEQKKRQYEKNESALYQAYQYVQQARSKKDMLETMQGDFSGFYQGVKEVLKAKERLGGIRGAVLELISTEQKYETAIEIALGASAQHVVTDDEQSARKAIQYLKQNSFGRATFLPLSVIRDRQLQSRDAETAARHSSFLGVASELVTFDPAYRSVIQNLLGTVLITEDLKGANELAKLLGHRYRIVTLEGDVVNPGGSMTGGAVKKKNNSLLGRSRELEDVTKRLAEMEEKTALLEQEVKTLKHSIQDMEKKLCDLRETGEGLRLKQQDVKGQLYELQVAEKNINTHLELYDQEKSALSESDEERKVRKRKLEEELSAVSEKMKQLEEDIDRLTKQKQTQSSTKESLSNELTELKIAAAKKEQASKGEEDNLARLKKELTETELALKEAKEDLSFLTSEMSSSTSGEEKLEEAAKHKLNDKTKTIELIALRRDQRIKLQHGLDTYERELKEMKRLYKQKTTLLKDEEVKLGRMEVELDNLLQYLREEYSLSFEGAKEKYQLETDPEEARKRVKLIKLAIEELGTVNLGSIDEFERVNERYKFLSEQKEDLTEAKNTLFQVIEEMDEEMTKRFNDTFVQIRSHFDQVFRSLFGGGRAELRLTDPNDLLHSGVEIIAQPPGKKLQNLNLLSGGERALTAIALLFSILKVRPVPFVVLDEVEAALDEANVFRFAQYLKKYSSDTQFIVITHRKGTMEEADVLYGVTMQESGVSKVISVKLEETKEFVQ
modifications: engineered cysteine 715 cross-linked with M3M
notes: Smc, Bacillus subtilis (Bsu), cys-free Smc^3SV background with A715C; also called A715C at contact 7^C; source: E. coli BL21-Gold (DE3), purified (HiTrap Blue, Heparin, gel filtration without reducing agent)
[2]
  binding result: binds

B3: Smc^3SV(Q320C) (natural protein, B. subtilis, UniProt P51834 1-1186, looked up)
chain: MFLKRLDVIGFKSFAERISVDFVKGVTAVVGPNGSGKSNITDAIRWVLGEQSARSLRGGKMEDIIFAGSDSRKRLNLAEVTLTLDNDDHFLPIDFHEVSVTRRVYRSGESEFLINNQPSRLKDIIDLFMDSGLGKEAFSIISQGKVEEILSSKAEDRRSIFEEAAGVLKYKTRKKKAENKLFETQDNLNRVEDILHELEGQVEPLKIQASIAKDYLEKKKELEHVEIALTAYDIEELHGKWSTLKEKVQMAKEEELAESSAISAKEAKIEDTRDKIQALDESVDELQQVLLVTSEELEKLEGRKEVLKERKKNAVQNQECLEEAIVQFQQKETVLKEELSKQEAVFETLQAEVKQLRAQVKEKQQALSLHNENVEEKIEQLKSDYFELLNSQASIRNELQLLDDQMSQSAVTLQRLADNNEKHLQERHDISARKAASETEFARIEQEIHSQVGAYRDMQTKYEQKKRQYEKNESALYQAYQYVQQARSKKDMLETMQGDFSGFYQGVKEVLKAKERLGGIRGAVLELISTEQKYETAIEIALGASAQHVVTDDEQSARKAIQYLKQNSFGRATFLPLSVIRDRQLQSRDAETAARHSSFLGVASELVTFDPAYRSVIQNLLGTVLITEDLKGANELAKLLGHRYRIVTLEGDVVNPGGSMTGGAVKKKNNSLLGRSRELEDVTKRLAEMEEKTALLEQEVKTLKHSIQDMEKKLADLRETGEGLRLKQQDVKGQLYELQVAEKNINTHLELYDQEKSALSESDEERKVRKRKLEEELSAVSEKMKQLEEDIDRLTKQKQTQSSTKESLSNELTELKIAAAKKEQASKGEEDNLARLKKELTETELALKEAKEDLSFLTSEMSSSTSGEEKLEEAAKHKLNDKTKTIELIALRRDQRIKLQHGLDTYERELKEMKRLYKQKTTLLKDEEVKLGRMEVELDNLLQYLREEYSLSFEGAKEKYQLETDPEEARKRVKLIKLAIEELGTVNLGSIDEFERVNERYKFLSEQKEDLTEAKNTLFQVIEEMDEEMTKRFNDTFVQIRSHFDQVFRSLFGGGRAELRLTDPNDLLHSGVEIIAQPPGKKLQNLNLLSGGERALTAIALLFSILKVRPVPFVVLDEVEAALDEANVFRFAQYLKKYSSDTQFIVITHRKGTMEEADVLYGVTMQESGVSKVISVKLEETKEFVQ
modifications: engineered cysteine 320 cross-linked with M3M
notes: Smc, Bacillus subtilis (Bsu), cys-free Smc^3SV background with Q320C; also called Q320C at contact 4^N; source: E. coli BL21-Gold (DE3), purified (HiTrap Blue, Heparin, gel filtration without reducing agent)
[2]
  binding result: binds

B4: Smc^3SV(D193C) (natural protein, B. subtilis, UniProt P51834 1-1186, looked up)
chain: MFLKRLDVIGFKSFAERISVDFVKGVTAVVGPNGSGKSNITDAIRWVLGEQSARSLRGGKMEDIIFAGSDSRKRLNLAEVTLTLDNDDHFLPIDFHEVSVTRRVYRSGESEFLINNQPSRLKDIIDLFMDSGLGKEAFSIISQGKVEEILSSKAEDRRSIFEEAAGVLKYKTRKKKAENKLFETQDNLNRVECILHELEGQVEPLKIQASIAKDYLEKKKELEHVEIALTAYDIEELHGKWSTLKEKVQMAKEEELAESSAISAKEAKIEDTRDKIQALDESVDELQQVLLVTSEELEKLEGRKEVLKERKKNAVQNQEQLEEAIVQFQQKETVLKEELSKQEAVFETLQAEVKQLRAQVKEKQQALSLHNENVEEKIEQLKSDYFELLNSQASIRNELQLLDDQMSQSAVTLQRLADNNEKHLQERHDISARKAASETEFARIEQEIHSQVGAYRDMQTKYEQKKRQYEKNESALYQAYQYVQQARSKKDMLETMQGDFSGFYQGVKEVLKAKERLGGIRGAVLELISTEQKYETAIEIALGASAQHVVTDDEQSARKAIQYLKQNSFGRATFLPLSVIRDRQLQSRDAETAARHSSFLGVASELVTFDPAYRSVIQNLLGTVLITEDLKGANELAKLLGHRYRIVTLEGDVVNPGGSMTGGAVKKKNNSLLGRSRELEDVTKRLAEMEEKTALLEQEVKTLKHSIQDMEKKLADLRETGEGLRLKQQDVKGQLYELQVAEKNINTHLELYDQEKSALSESDEERKVRKRKLEEELSAVSEKMKQLEEDIDRLTKQKQTQSSTKESLSNELTELKIAAAKKEQASKGEEDNLARLKKELTETELALKEAKEDLSFLTSEMSSSTSGEEKLEEAAKHKLNDKTKTIELIALRRDQRIKLQHGLDTYERELKEMKRLYKQKTTLLKDEEVKLGRMEVELDNLLQYLREEYSLSFEGAKEKYQLETDPEEARKRVKLIKLAIEELGTVNLGSIDEFERVNERYKFLSEQKEDLTEAKNTLFQVIEEMDEEMTKRFNDTFVQIRSHFDQVFRSLFGGGRAELRLTDPNDLLHSGVEIIAQPPGKKLQNLNLLSGGERALTAIALLFSILKVRPVPFVVLDEVEAALDEANVFRFAQYLKKYSSDTQFIVITHRKGTMEEADVLYGVTMQESGVSKVISVKLEETKEFVQ
modifications: engineered cysteine 193 cross-linked with M3M
notes: Smc, Bacillus subtilis (Bsu), cys-free Smc^3SV background with D193C; also called D193C at contact 1^N; source: E. coli BL21-Gold (DE3), purified (HiTrap Blue, Heparin, gel filtration without reducing agent)
[2]
  binding result: binds

B5: Smc^3SV(Y944C) (natural protein, B. subtilis, UniProt P51834 1-1186, looked up)
chain: MFLKRLDVIGFKSFAERISVDFVKGVTAVVGPNGSGKSNITDAIRWVLGEQSARSLRGGKMEDIIFAGSDSRKRLNLAEVTLTLDNDDHFLPIDFHEVSVTRRVYRSGESEFLINNQPSRLKDIIDLFMDSGLGKEAFSIISQGKVEEILSSKAEDRRSIFEEAAGVLKYKTRKKKAENKLFETQDNLNRVEDILHELEGQVEPLKIQASIAKDYLEKKKELEHVEIALTAYDIEELHGKWSTLKEKVQMAKEEELAESSAISAKEAKIEDTRDKIQALDESVDELQQVLLVTSEELEKLEGRKEVLKERKKNAVQNQEQLEEAIVQFQQKETVLKEELSKQEAVFETLQAEVKQLRAQVKEKQQALSLHNENVEEKIEQLKSDYFELLNSQASIRNELQLLDDQMSQSAVTLQRLADNNEKHLQERHDISARKAASETEFARIEQEIHSQVGAYRDMQTKYEQKKRQYEKNESALYQAYQYVQQARSKKDMLETMQGDFSGFYQGVKEVLKAKERLGGIRGAVLELISTEQKYETAIEIALGASAQHVVTDDEQSARKAIQYLKQNSFGRATFLPLSVIRDRQLQSRDAETAARHSSFLGVASELVTFDPAYRSVIQNLLGTVLITEDLKGANELAKLLGHRYRIVTLEGDVVNPGGSMTGGAVKKKNNSLLGRSRELEDVTKRLAEMEEKTALLEQEVKTLKHSIQDMEKKLADLRETGEGLRLKQQDVKGQLYELQVAEKNINTHLELYDQEKSALSESDEERKVRKRKLEEELSAVSEKMKQLEEDIDRLTKQKQTQSSTKESLSNELTELKIAAAKKEQASKGEEDNLARLKKELTETELALKEAKEDLSFLTSEMSSSTSGEEKLEEAAKHKLNDKTKTIELIALRRDQRIKLQHGLDTYERELKEMKRLYKQKTTLLKDEEVKLGRMEVELDNLLQCLREEYSLSFEGAKEKYQLETDPEEARKRVKLIKLAIEELGTVNLGSIDEFERVNERYKFLSEQKEDLTEAKNTLFQVIEEMDEEMTKRFNDTFVQIRSHFDQVFRSLFGGGRAELRLTDPNDLLHSGVEIIAQPPGKKLQNLNLLSGGERALTAIALLFSILKVRPVPFVVLDEVEAALDEANVFRFAQYLKKYSSDTQFIVITHRKGTMEEADVLYGVTMQESGVSKVISVKLEETKEFVQ
modifications: engineered cysteine 944 cross-linked with M3M
notes: Smc, Bacillus subtilis (Bsu), cys-free Smc^3SV background with Y944C; also called Y944C at contact 3^C; source: E. coli BL21-Gold (DE3), purified (HiTrap Blue, Heparin, gel filtration without reducing agent)
[2]
  binding result: binds
